48 variants from FireProtDB (doi:10.1002/pro.2375) can be followed below.

B1: Amylosucrase, Q9ZEU2 (parent)
chain: MLTPTQQVGLILQYLKTRILDIYTPEQRAGIEKSEDWRQFSRRMDTHFPKLMNELDSVYGNNEALLPMLEMLLAQAWQSYSQRNSSLKDIDIARENNPDWILSNKQVGGVCYVDLFAGDLKGLKDKIPYFQELGLTYLHLMPLFKCPEGKSDGGYAVSSYRDVNPALGTIGDLREVIAALHEAGISAVVDFIFNHTSNEHEWAQRCAAGDPLFDNFYYIFPDRRMPDQYDRTLREIFPDQHPGGFSQLEDGRWVWTTFNSFQWDLNYSNPWVFRAMAGEMLFLANLGVDILRMDAVAFIWKQMGTSCENLPQAHALIRAFNAVMRIAAPAVFFKSEAIVHPDQVVQYIGQDECQIGYNPLQMALLWNTLATREVNLLHQALTYRHNLPEHTAWVNYVRSHDDIGWTFADEDAAYLGISGYDHRQFLNRFFVNRFDGSFARGVPFQYNPSTGDCRVSGTAAALVGLAQDDPHAVDRIKLLYSIALSTGGLPLIYLGDEVGTLNDDDWSQDSNKSDDSRWAHRPRYNEALYAQRNDPSTAAGQIYQGLRHMIAVRQSNPRFDGGRLVTFNTNNKHIIGYIRNNALLAFGNFSEYPQTVTAHTLQAMPFKAHDLIGGKTVSLNQDLTLQPYQVMWLEIA

The variants in the data set derive from B1. Conditions: Neisseria polysaccharea; pH 7; Thermal; DSF; Tris 50 mM; structure 1G5A; whole UniProt chain shown.
For D152I, the “change of melting temperature, mutant - wild type (higher = more stable)” value (shortened to “change of melting temperature, mutant”) is -1.6 °C.

Take D152E: the “change of melting temperature, mutant” value was -1.4 °C.

Turning to D152A, the “change of melting temperature, mutant” value worked out at 0.2 °C.

In the case of D515I, the “change of melting temperature, mutant” value is 0.6 °C.

For D515A, the “change of melting temperature, mutant” value turned out to be 0.8 °C.

Turning to R517A, the “change of melting temperature, mutant” value is 0 °C.

Take H195L: the “change of melting temperature, mutant” value was -6.4 °C.

With H195V, the “change of melting temperature, mutant” value is -4 °C.

On to H195K, for which the “change of melting temperature, mutant” value was -0.4 °C.

As to H195C, the “change of melting temperature, mutant” value is -0.2 °C.

In the case of H195A, the “change of melting temperature, mutant” value is -1.6 °C.

Regarding H195W, the “change of melting temperature, mutant” value was -5.8 °C.

As to H195Q, the “change of melting temperature, mutant” value was -3 °C.

Regarding H195D, the “change of melting temperature, mutant” value was -3.4 °C.

Regarding H195R, the “change of melting temperature, mutant” value was -5 °C.

On to H195G, for which the “change of melting temperature, mutant” value was -2.8 °C.

As to H195I, the “change of melting temperature, mutant” value is -6.6 °C.

Regarding H195T, the “change of melting temperature, mutant” value was -4 °C.

Take H195M: the “change of melting temperature, mutant” value is -0.2 °C.

H195N: the “change of melting temperature, mutant” value is -1.4 °C.

Take H195Y: the “change of melting temperature, mutant” value is -3.2 °C.

Regarding Y155N, the “change of melting temperature, mutant” value was -1 °C.

As for Y155F, the “change of melting temperature, mutant” value is -0.2 °C.

Turning to Y155A, the “change of melting temperature, mutant” value was -1 °C.

On to R454F, for which the “change of melting temperature, mutant” value stood at 0.2 °C.

With R454A, the “change of melting temperature, mutant” value was -0.2 °C.

For the variant R454E, the “change of melting temperature, mutant” value was -2.2 °C.

With R292K, the “change of melting temperature, mutant” value is 1.6 °C.

With R292V, the “change of melting temperature, mutant” value was determined as 1.8 °C.

Consider R292H, for which the “change of melting temperature, mutant” value came to 0.4 °C.

Regarding H400K, the “change of melting temperature, mutant” value is -1.6 °C.

Turning to H400F, the “change of melting temperature, mutant” value was -2.4 °C.

For H400M, the “change of melting temperature, mutant” value was found to be 0.4 °C.

Consider H400T, for which the “change of melting temperature, mutant” value worked out at 0.4 °C.

For H400W, the “change of melting temperature, mutant” value was determined as 0.4 °C.

As to H400Y, the “change of melting temperature, mutant” value was found to be 2 °C.

On to H400V, for which the “change of melting temperature, mutant” value came to 0.2 °C.

H400E: the “change of melting temperature, mutant” value amounted to 0.4 °C.

On to H400S, for which the “change of melting temperature, mutant” value is 0.2 °C.

For the variant H400Q, the “change of melting temperature, mutant” value is -0.4 °C.

In the case of H400G, the “change of melting temperature, mutant” value worked out at 0.8 °C.

For H400N, the “change of melting temperature, mutant” value was -0.2 °C.

Take H400C: the “change of melting temperature, mutant” value is 0.8 °C.

For H400P, the “change of melting temperature, mutant” value worked out at 2.2 °C.

For H400I, the “change of melting temperature, mutant” value is -0.2 °C.

Regarding H400L, the “change of melting temperature, mutant” value is -0.4 °C.

As to F258Y, the “change of melting temperature, mutant” value is -0.8 °C.

With F258N, the “change of melting temperature, mutant” value was -3.2 °C.
